The target of the experiment is human corticotropin-releasing factor 2a (CRF2a receptor) (human), Q13324. The experiment can be described thus: cell-based or functional assay.

*1 amine or outer side, *2 acyl side, *3 side chain or, on linkers, in order; H or OH if unused. Where no end group is shown, it is not given here. Side-chain parts run from the residue outwards. [ ]: non-standard residue; d: D form. The star is where a group is joined. C20 diacid = O=C(O)CCCCCCCCCCCCCCCCCCC(=O)*; γGlu = O=C(O)[C@H](CCC(=O)[*:2])N[*:1]; NMeI = CC[C@H](C)[C@H](NC)C(=O)O; Pentanoyl = CCCCC(=O)*; AEEA = NCCOCCOCC(=O)O; Aib = CC(C)(N)C(=O)O

human corticotropin-releasing factor 2a (CRF2a receptor) (human), Q13324, sequence (Q13324 20-411): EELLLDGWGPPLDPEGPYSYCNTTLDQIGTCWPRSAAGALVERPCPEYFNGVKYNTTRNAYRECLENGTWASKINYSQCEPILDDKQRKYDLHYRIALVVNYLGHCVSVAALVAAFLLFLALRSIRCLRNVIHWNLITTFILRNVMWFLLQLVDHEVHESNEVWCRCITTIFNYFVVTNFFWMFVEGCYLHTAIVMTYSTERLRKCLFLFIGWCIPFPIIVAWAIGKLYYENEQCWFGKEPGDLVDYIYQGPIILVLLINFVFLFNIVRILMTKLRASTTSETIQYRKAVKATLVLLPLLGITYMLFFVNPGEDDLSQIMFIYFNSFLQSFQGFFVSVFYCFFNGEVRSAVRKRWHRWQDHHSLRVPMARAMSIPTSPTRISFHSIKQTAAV

B1: SEQ ID NO 237 (peptide)
peptide: [NMeI]VLSLD[dV]PIKLK([AEEA-AEEA-γGlu-C20 diacid])KILLEQEKQKEQREQAETN[Aib]QILAQV-NH2
modifications: N-terminus assumed
SMILES: CC[C@H](C)[C@H](NC)C(=O)N[C@H](C(=O)N[C@@H](CC(C)C)C(=O)N[C@@H](CO)C(=O)N[C@@H](CC(C)C)C(=O)N[C@@H](CC(=O)O)C(=O)N[C@@H](C(=O)N1CCC[C@H]1C(=O)N[C@H](C(=O)N[C@@H](CCCCN)C(=O)N[C@@H](CC(C)C)C(=O)N[C@@H](CCCCNC(=O)COCCOCCNC(=O)COCCOCCNC(=O)CC[C@H](NC(=O)CCCCCCCCCCCCCCCCCCC(=O)O)C(=O)O)C(=O)N[C@@H](CCCCN)C(=O)N[C@H](C(=O)N[C@@H](CC(C)C)C(=O)N[C@@H](CC(C)C)C(=O)N[C@@H](CCC(=O)O)C(=O)N[C@@H](CCC(N)=O)C(=O)N[C@@H](CCC(=O)O)C(=O)N[C@@H](CCCCN)C(=O)N[C@@H](CCC(N)=O)C(=O)N[C@@H](CCCCN)C(=O)N[C@@H](CCC(=O)O)C(=O)N[C@@H](CCC(N)=O)C(=O)N[C@@H](CCCNC(=N)N)C(=O)N[C@@H](CCC(=O)O)C(=O)N[C@@H](CCC(N)=O)C(=O)N[C@@H](C)C(=O)N[C@@H](CCC(=O)O)C(=O)N[C@H](C(=O)N[C@@H](CC(N)=O)C(=O)NC(C)(C)C(=O)N[C@@H](CCC(N)=O)C(=O)N[C@H](C(=O)N[C@@H](CC(C)C)C(=O)N[C@@H](C)C(=O)N[C@@H](CCC(N)=O)C(=O)N[C@H](C(N)=O)C(C)C)[C@@H](C)CC)[C@@H](C)O)[C@@H](C)CC)[C@@H](C)CC)C(C)C)C(C)C
B1 returned an EC50 [nM] (cAMP) of 0.41 nM.

B2: SEQ ID NO 238 (peptide)
peptide: Ac-IVLSLD[dV]PIKLK([AEEA-AEEA-γGlu-C20 diacid])KILLEQEKQKKQREQAETN[Aib]QILAQV-NH2
SMILES: CC[C@H](C)[C@H](NC(C)=O)C(=O)N[C@H](C(=O)N[C@@H](CC(C)C)C(=O)N[C@@H](CO)C(=O)N[C@@H](CC(C)C)C(=O)N[C@@H](CC(=O)O)C(=O)N[C@@H](C(=O)N1CCC[C@H]1C(=O)N[C@H](C(=O)N[C@@H](CCCCN)C(=O)N[C@@H](CC(C)C)C(=O)N[C@@H](CCCCNC(=O)COCCOCCNC(=O)COCCOCCNC(=O)CC[C@H](NC(=O)CCCCCCCCCCCCCCCCCCC(=O)O)C(=O)O)C(=O)N[C@@H](CCCCN)C(=O)N[C@H](C(=O)N[C@@H](CC(C)C)C(=O)N[C@@H](CC(C)C)C(=O)N[C@@H](CCC(=O)O)C(=O)N[C@@H](CCC(N)=O)C(=O)N[C@@H](CCC(=O)O)C(=O)N[C@@H](CCCCN)C(=O)N[C@@H](CCC(N)=O)C(=O)N[C@@H](CCCCN)C(=O)N[C@@H](CCCCN)C(=O)N[C@@H](CCC(N)=O)C(=O)N[C@@H](CCCNC(=N)N)C(=O)N[C@@H](CCC(=O)O)C(=O)N[C@@H](CCC(N)=O)C(=O)N[C@@H](C)C(=O)N[C@@H](CCC(=O)O)C(=O)N[C@H](C(=O)N[C@@H](CC(N)=O)C(=O)NC(C)(C)C(=O)N[C@@H](CCC(N)=O)C(=O)N[C@H](C(=O)N[C@@H](CC(C)C)C(=O)N[C@@H](C)C(=O)N[C@@H](CCC(N)=O)C(=O)N[C@H](C(N)=O)C(C)C)[C@@H](C)CC)[C@@H](C)O)[C@@H](C)CC)[C@@H](C)CC)C(C)C)C(C)C
In turn, B2 displayed an EC50 [nM] (cAMP) of 0.11 nM.

B3: SEQ ID NO 236 (peptide)
peptide: Ac-IVLSLD[dV]PIKLK([AEEA-AEEA-γGlu-C20 diacid])KILLEQEKQKEQREQAETN[Aib]QILAQV-NH2
SMILES: CC[C@H](C)[C@H](NC(C)=O)C(=O)N[C@H](C(=O)N[C@@H](CC(C)C)C(=O)N[C@@H](CO)C(=O)N[C@@H](CC(C)C)C(=O)N[C@@H](CC(=O)O)C(=O)N[C@@H](C(=O)N1CCC[C@H]1C(=O)N[C@H](C(=O)N[C@@H](CCCCN)C(=O)N[C@@H](CC(C)C)C(=O)N[C@@H](CCCCNC(=O)COCCOCCNC(=O)COCCOCCNC(=O)CC[C@H](NC(=O)CCCCCCCCCCCCCCCCCCC(=O)O)C(=O)O)C(=O)N[C@@H](CCCCN)C(=O)N[C@H](C(=O)N[C@@H](CC(C)C)C(=O)N[C@@H](CC(C)C)C(=O)N[C@@H](CCC(=O)O)C(=O)N[C@@H](CCC(N)=O)C(=O)N[C@@H](CCC(=O)O)C(=O)N[C@@H](CCCCN)C(=O)N[C@@H](CCC(N)=O)C(=O)N[C@@H](CCCCN)C(=O)N[C@@H](CCC(=O)O)C(=O)N[C@@H](CCC(N)=O)C(=O)N[C@@H](CCCNC(=N)N)C(=O)N[C@@H](CCC(=O)O)C(=O)N[C@@H](CCC(N)=O)C(=O)N[C@@H](C)C(=O)N[C@@H](CCC(=O)O)C(=O)N[C@H](C(=O)N[C@@H](CC(N)=O)C(=O)NC(C)(C)C(=O)N[C@@H](CCC(N)=O)C(=O)N[C@H](C(=O)N[C@@H](CC(C)C)C(=O)N[C@@H](C)C(=O)N[C@@H](CCC(N)=O)C(=O)N[C@H](C(N)=O)C(C)C)[C@@H](C)CC)[C@@H](C)O)[C@@H](C)CC)[C@@H](C)CC)C(C)C)C(C)C
Turning to B3, the EC50 [nM] (cAMP) was 0.54 nM.

B4: SEQ ID NO 235 (peptide)
peptide: Pentanoyl-VLSLD[dV]PIKLK([AEEA-γGlu-C20 diacid])KILLEQEKQKKQREQAETN[Aib]QILAQV-NH2
SMILES: CCCCC(=O)N[C@H](C(=O)N[C@@H](CC(C)C)C(=O)N[C@@H](CO)C(=O)N[C@@H](CC(C)C)C(=O)N[C@@H](CC(=O)O)C(=O)N[C@@H](C(=O)N1CCC[C@H]1C(=O)N[C@H](C(=O)N[C@@H](CCCCN)C(=O)N[C@@H](CC(C)C)C(=O)N[C@@H](CCCCNC(=O)COCCOCCNC(=O)CC[C@H](NC(=O)CCCCCCCCCCCCCCCCCCC(=O)O)C(=O)O)C(=O)N[C@@H](CCCCN)C(=O)N[C@H](C(=O)N[C@@H](CC(C)C)C(=O)N[C@@H](CC(C)C)C(=O)N[C@@H](CCC(=O)O)C(=O)N[C@@H](CCC(N)=O)C(=O)N[C@@H](CCC(=O)O)C(=O)N[C@@H](CCCCN)C(=O)N[C@@H](CCC(N)=O)C(=O)N[C@@H](CCCCN)C(=O)N[C@@H](CCCCN)C(=O)N[C@@H](CCC(N)=O)C(=O)N[C@@H](CCCNC(=N)N)C(=O)N[C@@H](CCC(=O)O)C(=O)N[C@@H](CCC(N)=O)C(=O)N[C@@H](C)C(=O)N[C@@H](CCC(=O)O)C(=O)N[C@H](C(=O)N[C@@H](CC(N)=O)C(=O)NC(C)(C)C(=O)N[C@@H](CCC(N)=O)C(=O)N[C@H](C(=O)N[C@@H](CC(C)C)C(=O)N[C@@H](C)C(=O)N[C@@H](CCC(N)=O)C(=O)N[C@H](C(N)=O)C(C)C)[C@@H](C)CC)[C@@H](C)O)[C@@H](C)CC)[C@@H](C)CC)C(C)C)C(C)C
Molecule B4 registered an EC50 [nM] (cAMP) of 0.16 nM.

For the origin of these results see patent US20260001928A1 (CORTERIA PHARMACEUTICALS, priority 2022, published 2026).
